These results are taken from a protein production outcome set (Wang et al. 2014).

This data set in a line: label from the status in PepcDB records.
Turning to “MNLYADYEYYTSTYKGNLAKEEFEKSIMKASAYVRRITFGRADDNMEMEEVKLAACSVCDLIANDEKVRSKHSGRAVTSENTDGYSVSYESGGNGETADDLLKRNIFDTLLLYLEPTRLLYMGVELLEHHHHHH”, the protein production result is listed as “not failed”.

Consider “MIKGTGHMIVNIANDRGMSIDSIRKTIKESVLIAYKKYFGSNENAFIKFDDDTGDLSVYAKKKIVKEVKDSLLEILEKDISKENIVEGDYAYIEINPKVFDRLSIQVAKQRTKNDLQGIEDNEILSEFKSKLNKVVIGYVQQNRNGDLYVNLGNTDGIIPKKYQSPREVYNLNDKIRVLVYNVKKGKNGIEVILSRTHPKFIEELLALEIPEIEEGIIKIHKIVRDPGYRIKVAVYSEKEEIDPVGPCIGQKGVRIQSIIKELEGEKIDIIPYSKDIKEFIKDSLTPSKIEHVYILDEDLHKALVVVSDDQLSLAIGKMGQNVRLANRLLDWAIDVKTSSQFAEMKANSEFKQETLEMFDKVMQDVVEEEQFEEISKISDLKLLDPSVISNLSKEGFDDINNFLQADEGVLFNLGVSYEKQEEINKILKEGMIIIANDNDESMEKVEEDEELLCPECGVVINENMTSCPGCKIGLSFEFEEE”, for which the protein production result was “failed”. Next, “MSITRRDILKGAAATGAIAATSVLSGCQKTGATNSMADLAHKIKRPNLLIIFPDEMRAQALGFMGEDPSLTPNLNRFAKDSAVLKQAVSNFPLCTPFRGMLMTGQYPYRNGIQGNSHTATPGMFGGKDFGIELKKNQSTWSDILSQQGYSMGYIGKWHLDAPEAPFVPSYNNPMEGRYWNDWTTPDRRHGFDFWYSYGTYDKHLTPMYWTNDTPRDQPLHINQWSPEHEADIAIKYLRNENGNYRNNDKPFTLVVSMNPPHSPYDQVPQKYLDRFKESSRTLNSRPNVQWDKEYLEGYGPEYFKEYMAMVNGVDEQFGRIVDELDALNLAKDTLVVFFSDHGCCMGSNGNPTKNVHYEEAMRIPMMFRWPGKIAPKSDDLLFSAPDIYPTLFGLMGMDDLIPDTVEGTDFSKTVKSESGDIKPTSQFYTFMPYGGQSYGRRGIRNKQYTLMIDRKIGKPLTYVLHDNQVDPYQMKNIAEQQPELISQLIQNELMPWLEHTGDPWRPTEVPKNTANAYT”: “failed”.

For the sequence “ENGSRKQLYRLDLKTLEISQIQTGEDVVQWFGVATDNGAVWYSGQSANNADRLYRLDGTKGKLVWDLSAEKLANIDFTPARDWNYTAPDGTVVEGWYYLPPQFDPSKKYPMLVYYYGGTSPINRTLEGHYSLAMYAAQGYVVYTLNPSGTTGYGQEYAARHVNAWGDRTADEIIGATKEFIRTHSFVNGKK”, the protein production entry is recorded as “failed”. Next, “MIIDEKRVQEIKNGETSLGIEFGSTRIKAVLIANDFSILASGSFEWETSLENGVWTYSIDEIWKGLQYSYQKLFAEVKEKYGVVLSKIGSIGFSAMMHGYMAFDNKGELLVPFRTWRNTMTEEAAKKLTDLFKFNIPERWSIAHLYQAILRNEPHVEKIDFLTTLAGYIHWQLTGEKVLGIGDASGMFPIDTQTHNYDKNMLETFKNLPEVKKHSLDLEKLLPKVLLAGENAGVLTLEGAKKLDVSGNLQPGIPLCPPEGDAGTGMVATNSVAPRTGNVSAGTSIFAMVVLEKPLNRVHPEIDIVTTPSGDLVAMVHANNGCSDLEAWVNIFQQFTEAINVDMRKDLLYMALYTQAFQGDPDCGGVLAYNYFAGENITGVSEGRPMVVRKAKSNFNLPNFMRAHLFTSLGALKIGMDILLKDEAVKLDKLLGHGGLFKTPIVGQAAVAGAVNAPVSVMETAGEGGAWGIALLASYLRSKENDSTLPEFLSKNVFAGYVAEEVQPDPKDVKGFEEFIERYKKGIAIEQAAVEHLILEHHHHHH”: “failed”; “MITFIIHSVSAETASESLLSKLAEAKDYLRIQPSVSSRILKKHLANIGQLTINDQLSWHQNLLRASIALNDLNQVEKTVKVMLSYPELEKKTDKFVSLLSSLGIFLRRTGHPNESILLFNCGLEQPIKNGKQKISLLISKGSSLSSLNKYSQAKTTYAQALQLAKQQNSEVLISAIYNTLGIMALKQGNYTLAKEYLVNALQLSQKISRRSGQIVAGLQLLRLSILSDEPMLYDRLHYRISRLTLVSESEVRHAYLFWLEKAHKASKGNKLSAQEQDELLSKLDQIKPISVSLYNQLVETLAEPMGITSLALINESSEYQGDLLNNIHQCKNIE”: “failed”. With “MSYAKEMLDAIEAGQMETAKQLFTQVLAHDDDETQYNLAEELYALGFNGQAKRLYQGLLGRYPDQGDLATALADIAVSDGDTDAALNYLSRIQPGDPAYVQSLVSAADVYQTLGLYEVSEQKLLEAKRLAPDEPVVTFALGEFYFDWGHFAEAISAYNELLAAGTTELAGVNIEARLAASLAQTGQYEDAVAAYEDVGVDALDLNGRFELGGLYLQLDDPAKAITNLQAVIDSDPSYANAYLPLARAYEAQNQPDKALDTVQAGVMVDDTNPTLYALGGKLALSEDNVKLAETYLQKALAIDPEDQGNMLAWSNFLVQEERDQENVDFLDQIDRSGDVDPQIYWNMAKSYDRLENIKKARENYLLAFNRFQDSPDFLHDIIDFFQSTGARAELKAALVRYLKLVPTDDEMQARLDELNAETDLEHHHHHH” the entry was “not failed”; with “MSLEKLKLIGDERLDYLLAENLRIIQSPSVFSFSIDAVLLAKFSYLPIRKGKIIDLCSGNGIIPLLLSTRTKAKIVGVEIQERLADMAKRSVAYNQLEDQIEIIEYDLKKITDLIPKERADIVTCNPPYFATPDTSLKNTNEHFRIARHEVMCTLEDTIRVAASLLKQGGKANFVHRPERLLDIIDIMRKYRLEPKRIQFVHPRSDREANTVLVEGIKDGKPGVKYVPPVIVYDELGEYTPVIKEILYGESEGHHHHHH”, “not failed”. Take “MSAPLVYHHTPPALLPLYGKALLPKSGKNHPEAVQIPRLEASLLGVTTDIPALRDYMKVCNFQPGTRLPVTWPHILAFPLHLKLLTEPAFPLPLLGLVHLRNSITQHRPLAAGENLDLKVILDNQKRTDRGLEFDLVTEARASGRLIWEEVSTNLFRITNGPGKTSPKPKPELETYPFSEAIKAPENLGRQYAKVSGDRNPIHMHALSARAFGFPRAIAHGMWSKARALALLENQKGWKDGPVRASCQFKKPLLLPGNAMLNWQTGKDGWDFQLLNAKGDAPHLTGRIDWL”: the protein production result was “failed”.

Regarding “MDFKIEKYLLKKAEELAFITIKHGGEFKLKSYEVPKGGLDVPIKNEVLVKGIKEKTAQDKLNSMSIADAMIYIIGIDSKFKNNAEYEKFLNALSKDIDLDLKSYMGYMSRKYFEIGEHTDSLIYIKAFITMYPDDLDAMYNYAIVCQEIAKQYQKDMDDKAMNAFLLEAMAKLEKVIDVDENFALGYYHLGYHYYNQGQYLKTKLTWEEALRLGLDADLVAEVQENLGKMDFKVQYEEGYTLVFQGKFKEGLEKLLPLEEEHMDWWNLLFMIALGYKGMGEIEQAKMYLEKILIIKPNQVDTIVELGLCEAYKNNLDKAIEYFEQAAKIKEDPEILCNLGMAYLNNGDIDDATYYIERAYELNPQDEITIVCLRELGINK”, the protein production result is “failed”.

Consider “MSQSNSNHSPQEQWQQAVLTYARDINRYVETGNRDGWKGLKEPHLPDTEHLLPDWQAALEASNQEPYDAARRQAFRQEWPPAHFPLSPRLESQGRMIPTLALLPDGSLLARIGAPYEAGEVVHIDDARIQPLEQVEGFGMCPQRRYFAWARADGIQLTDGWNGPEVASFAWPDPHANLPAGVALEDTGRPRPSSLIPFPDGRRVLLVSSDGIFVLQAEGATRLLPSLEDLQQELADGVAPEDLGIGLSMEHGAVSPDGQWIAVGEQSSSHLVFDARLQRVAQIGPASEYPHFAHFNQRGDRLLLNACHFYGGASVGVAVADLPGLSTDFYSDDARTPVLQEGARVYAAASRGDEFIIGDAYGYLRAFSENGEERWQHYIGSTLTAMDISPDGKTLVAATYAGIIVKLDLDAGRPDWQIGTGEHLEVQRWLFWKDFAKPLLW”, for which the protein production result was “failed”. With “MINKKTTSENRRILQIAVPSIISNITVPLLGLIDVTIVGHLGSPAYIGAIAVGGMLFNIIYWIFGFLRMGTSGMTSQAYGQHDLNEINRLLIRSVGVGLFIALCLLILQYPILNAAFTLIQTTEEVKQLATTYFYICIWGAPAMLGLYGFAGWFIGMQNSRFPMYIAITQNIVNIIASLSFVYLLDMKVAGVAAGTLIAQYAGFFMAILLYMRYYSTLRKRIVWKDIIQKQAMYRFFRVNRDIFFRTLCLVIVTMFFTSAGAAQGEVVLAVNTLLMQLFTLFSYIMDGFAYAGEALAGRYIGARNQTALRNTVNHLFYWGIGLSAAFTLLYAIGGKEFLGLLTNDVSVISSSDTYFYWALAIPLTGFSAFLWDGVFIGATATRQMLYSMLVASVSFFMIYYAFHNLLGNHALWLAFITYLSLRGIVQTFIGREIVKKAI” the entry was “failed”; with “MHMLFYKSYVREFIGEFLGTFVLMFLGEGATANFHTTGLSGDWYKLCLGWGLAVFFGILVSAKLSGAHLNLAVSIGLSSINKFDLKKIPVYFFAQLLGAFVGTSTVYGLYHGFISNSKIPQFAWETSRNPSISLTGAFFNELILTGILLLVILVVVDENICGKFHILKLSSVVGLIILCIGITFGGNTGFALNPSRDLGSRFLSLIAYGKDTFTKDNFYFWVPLVAPCVGSVVFCQFYDKVICPLVDLANNEKDGVDL”, “not failed”; with “MLSATSLKIIFAVSIFIVILIAGWYPFKKRLKDDKHIDFPIGETLATGVFLGAALLHMLPESNTLFKEMGYNYPFAFIITGVVFLIFLWFEHLGKELYHHHDAEHPAFAILAWAMLSVHSLMLGAALGFTQYNSMIIMLFLAIITHKWAESLAIAIQLNKSSMSTRKSMVFFFFFSLMTPLGIYFGWYFGHGVETNSLFDPILIAASAGTFLYLGTLHGLERCVMVERCCNLSDFSFVIIGFLLMASVAIYV”, “failed”.

“MHTLEQLRAGALTGIQALKLSENLTEVPAEVFQLADTLEILDLSGNRLHSLPQEMACLTRLRILFLSDNDFTIFPEVLKELKQLDMLGIKANNIQVIAEDAIPVSLRWLILTDNCIEALPVSIGRCTKLQKVMLAGNQLSGLPDELAACRNIELLRISANNMHTFPEVVKQLPRLAWLAYSSNPFQVNRSSFNALPVIAWENVALMEQLGAGASGIIYKARLNTGKSPEDVAVKVFKGAVTSDGLPEDEMTACMQAGRNSHLVSVLGVIGGHPEGMHGLVMELIPAEYKNLGRPPSFVTCTRDTFAAGTRFTAQQMLLILKGVAEAAKQLHDNGIMHGDLYAHNTLINEKYHSLFGDFGAATLYDKNNRDEAFFLERLDVRAFGCLADDLLQYSVCTKEDEWCLETLKRLSAGCMNEEPDKRPAFNTIVYELQLLQNTHLEHHHHHH”: the protein production result is “not failed”. Next, “MEDHHHLPENLKPFFHRATEAQERLAKLEAALASTKTDIPDAKLVEENKQLQSKLEEANATVKQEQTKVKDLTIENAKHKYRILHLVRALKDADQKLERLSK”: “failed”; “MRLRNWPRWQRWLNRRIPPASSVELNQRRVFILPTRQGGAFGLALLVMLLAAINYQNSLAYGLTFLLLSLGVVTILHTYRNLAGLRLTALGADPVFAGERAGFRVRLESPRRARQAIAVGWPERPLEYADLAGDAAAEVLLFHPTERRGWLRPGRLRVESRFPLGLLVAWSWVDLRQQALVYPRPQAGEPLLAPGAEDAEDQGRALASAGVDDYQGLRAYQPGDSRRRLHWKAFSRGQGLLVKDFAALGGEDLWLEFERLGGDLESRLGRLCHAVLELSARQQPYGLALPGTRLQPASGEAQREACLRALALFGAAR”: “failed”. With “MRIGHGFDVHAFGGEGPIIIGGVRIPYEKGLLAHSDGDVALHALTDALLGAAALGDIGKLFPDTDPAFKGADSRELLREAWRRIQAKGYTLGNVDVTIIAQAPKMLPHIPQMRVFIAEDLGCHMDDVNVKATTTEKLGFTGRGEGIACEAVALLIKATK” the entry was “not failed”; with “MHTARFPSSATPSIFFRYFMALNEQDVARIARLALIELPPDQRGRAQAELNGILHLIERLQAVDTQGVEPLAHPLSAHEDITLRLREDAVSEQATEARRAELLANAPESADGLFLVPKVIE”, “failed”. Next, “MGHHHHHHSHMLVDNLYRVVSNQKDAAVIRVHLEVNASHEIFKGHFPEVPVLPGVCMVQCIKELIEESLLVKTQIDKGDMIKFLSMLNPVESNSIQAEISIKEKTETRIVFQATLKNEDRFLLKYSGSLVVLN”: “failed”.
